experiment: soluble on expression in E. coli; label from the status in PepcDB or PDB records

| Sequence | soluble on expression in E. coli |
| --- | --- |
| MGSDKIHHHHHHMFTKKSRNIYKAGSLCEFAKAFFIGGIDVENVVKHALLKEVEQLMEQYIGGLKEIFLDEKIVGVYIYGSIALGAFHAETSDVDFVTVISDPVNEAEKQQLVELHKKLSGSTLGKRMDGMYIPLADLGKYNDEMNEYVYCADGKANIGHWDINAVTWWTLKNQGITVIGKEAEDLSFQIRWDDVVNTMKYNVEQYWSGKAKQPYLFFIEEWVESAVVTMGRILYTLDHKTIVSKDRGLQYLLEHSSEEWGPLLKEVERIRQNPKEKRMLSRWRRADMTKRFLLHLIETCRGKWTIQ | not soluble |
| SLISYCSDSGDENISCTKKMVVTVTVEGEQLPGEESLLFLNSATDMTVNNGTSVQFSPLRITTSRSAVRYRYPLFYVQNYNAKPYEATVKGSLLNQCNADFNADTATCGLAYDAAGKAIPYSQGFCCDCSMCQTLGLCQPDARANAACNVFGKYTTASCLRFAQRWYSGYTIGGYMTWYTVNLTLSRNVSDSGGAGAAEKVVMRLSPSNNGEVAGEGWDVMARIVGTYAPVDQPLDLTSRMLFAPAIPPNDARVQAGAAEWLLLPTNLVTLDGRECDKVGVSYEAFASQGNKCNLRPGSCLSSQLEDYRTADLQRIAAGNKGQYMATSFGDFNLENDAATSPYISYLAASPAATMISITVSADDLEYTVGLASGKIISTDMNKPTLQAGTADGVMTVMVRNTAAVTGRLVVGTLNCSDGVF | not soluble |
| MDDSDDEYSRSHGETLTFVDPEDDGVSIGNTQDSQFAYEQFSVPTQSSQATDLLPGGTDGTTNDLPFHDVEDDESDSEKSLTEEQQQQKLPEHACRYCGISDPLCVAKCTVCRKWFCNSNDGTSGGHIVHHMVRSQHKEAYTHKDSPCGDTQLECYRCGSKNVFNLGFIPGKKDQVVVIICRTPCASIAFQNDDNWSPEDWKSVIAEKQLLSWIVNVPSEEQVARARKITATQAVRMEELWRDHPEATVDDLNKPGLDREPDHVQLRYVDAHHYSKVFRPLVAIEAEYDRRVKESASQAVGTVRWEQGLRQSVLAFFHLPQFADGVMKLAKGDELRLKHSQTVDGSEWTKIGSVFKIPDNHGDEVGIEIRGAVDKSVMESRIMFTVDVVWNATTFERQYKALAALLNDSKAISPYLYQKLLGHPAEEMMLKFDLPRRLSVAGLPELNSSQMQAVKQVLTRPLSLIQGPPGTGKTVVSATIVYHLVQKTEGNVLVCSPSNIAVDHLAEKIHKTGLKVVRLCARSREHSETTVPYLTLQHQLKVMGGAELQKLIQLKDEAGELEFKDDLRYMQLKRVKEHELLAAADVICCTCSSAADARLSKIRTRTVLIDESTQATEPEILVSIMRGVRQLVLVGDHCQLGPVVICKKAAIAGLSQSLFERLVLLGIRPFRLQVQYRMHPVLSEFPSNVFYDGSLQNGVTENDRHMTGVDWHWPKPNKPAFFWHCSGSEELSASGTSFLNRTEAANVEKLVSKLIKAGVQPHQIGVITPYEGQRSFIVNYMHTQGTLNSKLYENVEIASVDAFQGREKDYIIVTCVRSNDILGIGFLSDPRRLNVAITRAKYGLVLVGNAKVLARHDLWHELINHYKSKEMLYEGPINALKPLNLALPKATIRTKNNIAGNANRFGIKRMQYTFNEYKSNDPSQPRLPPTYSNSQNLLSMSKLAQTFNKNVPIPAHMMDPNVYAAARNQKDRRRGDQRRPPPQAEAAMDLSQGMMSQQSQQYPPQGASSQSQYLLDGASSLSGWSQSQTTTTTTRHHHHRQNRNSQQQMSQDMDDIQQKMDDLLFSQDC | not soluble |
| MLDIKFLRTNFEEVKAKLQHRGEDLTDFGRFEELDTRRRELLVQTEELKSKRNEVSQQISVLKREKKDAEALILEMREVGEKVKDLDNELRTVEEDLERLMLSIPNIPHESAPVGETEDDNVVARTWGEVKEFAFEPKPHWDLATDLGILDFERAGKVTGSRFVFYKGAGARLERALISFMLDLHTDEHGYEEVLPPYMVNRASMTGTGQLPKFEEDAFRIESEDYFLIPTAEVPVTNMHRDEILNKEQLPIRYAAFSSCFRSEAGSAGRDTRGLIRQHQFNKVELVKFVKPEDSYEELEKLTNDAERVLQLLELPYRVMSMCTGDLGFTAAKKYDIEVWIPSYGTYREISSCSNFEAFQARRANIRFRREPNGKPEHVHTLNGSGLAIGRTVAAILENYQQEDGTIIIPEVLRPYMGGKTVIK | soluble |
| MKMNNTKEYSIRTPSLGNLPPGTTGTCCPPPLVFPLLPLSPPPSPPPSPSSPPRLPPPFPALFPPEPPLPPRFELPPPLFPPPPLPRLPPPLLPPPEEPPREPPPPPPPPEEPPPPASCLRTKSPENGIVSTVK | not soluble |
| AHHHHHHGSVLKCVVCGREYPEDEVRYRCECGGLLEVVIDLDKVDTSIFNGKEIKLWKYESWLPVKKRVSLEEGGTPLYRLLNLESDLGVKELYAKNEGANPTGSFKDRGMTVGVSKALELGMDKVICASTGNTSASLAAYAAKAGIKAYVLIPSGKIALGKLAQAIIYGARVVPIKGNFDDALRVVVETSKELGIYMLNSINPFRLEGQKTIAYEIYDQLGKVPDNVILPVGNAGNISAIWKGFKEMYEAGVIDELPRMIGIQAEGASPLAKAWKEKRKFQPEESPETIASAIRIGNPANWIKAWRAVEESGGLFESVSDEEILRAQKLLASREGLFVEPASAASLAGLIKLLESGEISRNESYVLITTGHGLKDPNIVIKNFQVPEPIDPTLEAFKEVIE | soluble |
| MDWFSWLSRTNLEASLIYEYGLSFSNNELEYEDIAYFNHEFLQSMGISIAKHRLEILKLARRDRKPSPLTARSIFRVLIAIKKTGKCFSEHVRAWIRREESSRALVVVSRSTSSSGNGRWKSARKKRLVMPSNGNGVKEERLLLTNGTPCRLDSFSNPKVSSGYEDDDNHWGNKDVEEKIKWDSMFQNLKPT | soluble |
| MAHHHHHHMLMHSSTLGSVTYTGMKRRSNAASFSTYLRYSSKVVAPIVRSSPRANMGFKRFAASIAPSDLPAPSTTCISSMKRMMGVGLSRTSFKTLFRRSSNSPRYFAPAIRAPRSREKMREEERVSGTSPRTICCAMPSTMDVLPTPGSPIKTGLFFVRRDRTRMVRNTSSARPISGSSLPSSACRHMSIAYLDNAS | not soluble |
| MGSDKIHHHHHHMTQVDILILSNGPGEVTTWVRPVVRALRQQFGDDRNQVRISVVLSPCSNASGKEAAIALSYPEVDRVQAAEHFWQFLLWGKTIDNWDWRSRGVVVFLGGDQIFPVVIGKKLGYRTVVYAEWEARWHNWIDRFGVMKPEVAARAPHKYAHKFTVVGDLMVEANSHSSLVIGDLSNDKELMTNDIDASTTSHSVGQKTELIGLLPGSKAAKLAQGVPLCLSIAEYVHAKRPQTKFVIPVAPTLDLQTLASFADPQRNSIAEIFGFGGAALIVPEDDRDKALLKTAKGVTVELWQENPAYHLLSQCCICLTTVGANTAELGALGVPMIVLLPTQQLDAMRAWDGLPGLLANLPGVGTPFANTINWLFLRFVRRKGLLAWPNIWAQEEIVPELMGKLQPPEIGEMVVELLAHPEKLADIRAKLRNIRGESGAALKIAQIVCEEMGK | not soluble |
| MGSDKIHHHHHHMRKKSLTLLSDGYLFRKENTIYFENARGKKPLAIEGIYDIYIYGKVSISSQALHYLAQKGIALHFFNHYGYYDGSFYPRESLHSGYLVVNQVEHYLDKDKRLELAKLFIIGGIKNMEWNLLKFKNKTKFSSYIEELNNCNKITEVMNVEGRVRTEYYRLWDETLPDDFKIVKRTRRPPKNEMNALISFLNSRLYPAIITELYNTQLTPTVSYLHEPHERRFSLALDLSEIFKPMIADRLANRLVKQGIIQKKHFRDDLNGVLLNKEGMKVVLEHFNKEMDKTVNHKKLKKNVSKRRLIRLEAYKLVKHLVGQKRYEPLVAWF | not soluble |
| MYVYDEYDQRIVEDRVKQFRDQTRRYLAGELTGEEFRPLRLQNGLYIQRYAPMLRIAVPYGLLSSRQLRKLAQIARDYDKGYAHISTRQNVQFNWPELEDVPEILAELATVQMHAIQTSGNCIRNTTTDQFAGVARDELVDPRPWCEIIRQWSTFHPEFAHLPRKFKIAVNGAVSDRAAIEVHDIGLEAVKNEAGELGFRVSVGGGLGRTPIVGSFINEFLPWQHLLGYLDAILRVYNRYGRRDNKYKARIKILVKALTPEVFAERVEAEWANLKDGPSTLTEAEVQRVAAHFVDPAYKALDDLDESLARLDAEHPGFARWRARNTFAHKKPGYVAVTLSLKPTGTAPGDVTDKQLEAIADLADRYSFGEVRNSHNQNIILADVEQGELFALWGELRELGFATPNVGLLTDIICCPGGDFCSLANAKSIPIAEAIQRRFDNLDYLFDIGDIDLNISGCMNACGHHHVGHIGILGVDKKGAEFYQVSLGGSSARDASLGQILGPSFAQEQMADVIDKIIQVYVERRTEEEPFIDTFRRIGIDPFKERVYAAN | not soluble |

Reference: the DeepSol protein solubility set
